According to the supplement of paper PMC6757056:
± gives the standard deviation of the averaged measurements.

B1: library; a variant is named by its letters at N, in order (parent)
chain: GCUGUCACCGGUGUAUUACCCUAGUGGUCGACCGGUCUGAUGAGUCUNNNNNNAGACGAAACAGC

Assays:
hypoxanthine [1] = variants of: B1; test: normalized RNA/DNA level with ligand (relative to sTRSVctl = 100) (log10 (% of sTRSVctl)); ligand: hypoxanthine (xanthine aptamer); higher = less ribozyme self-cleavage, higher mRNA level; settings: ligand concentration (+) RNA-Seq: 5 mM, HEK293T, reporter: mCherry (pCS4076), ligand present: yes
Summary of the method: (§1)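 Total RNA, extracted with EDTA 72 h after HEK293T cells were transfected with 4 µg per 6-well well of reporter-linked ribozyme switch library plasmids, was reverse-transcribed, amplified, barcoded and sequenced. Ligand, if used, was added 1 h before transfection. RNA level was derived from RNA reads divided by DNA reads and normalized to a spiked-in non-cleaving sequence or to the top sequences. This was multiplied by 100 and log10-transformed, with the top set of 25 sequences and a ≥100 DNA read minimum.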

hypoxanthine [2] = variants of: B1; test: normalized RNA/DNA level without ligand (relative to sTRSVctl = 100) (log10 (% of sTRSVctl)); ligand: hypoxanthine (xanthine aptamer); higher = less ribozyme self-cleavage, higher mRNA level; settings: HEK293T, reporter: mCherry (pCS4076), ligand present: no
Summary of the method: as §1

Row | Variant | normalized RNA/DNA level with ligand (log10) (hypoxanthine [1]) | normalized RNA/DNA level without ligand (log10) (hypoxanthine [2])
1 | CGUAAC | 1.95 ± 0.047 | 1.77 ± 0.038
2 | CGUAAG | 1.95 ± 0.049 | 1.76 ± 0.022
3 | CGUAAU | 1.86 ± 0.022 | 1.675 ± 0.013
4 | CGUGUA | 1.93 ± 0.024 | 1.68 ± 0.042
5 | CGUGUG | 1.903 ± 0.015 | 1.75 ± 0.08
6 | CGUGUU | 1.97 ± 0.054 | 1.89 ± 0.071
7 | CGUGUC | 1.947 ± 0.015 | 1.94 ± 0.039
8 | CUACCG | 1.95 ± 0.025 | 1.8 ± 0.026
9 | CUACCA | 1.93 ± 0.053 | 1.82 ± 0.02
10 | CUACCU | 1.96 ± 0.092 | 1.9389 ± 0.0018
11 | CUACCC | 1.935 ± 0.014 | 1.88 ± 0.06
12 | CGUCAC | 1.96 ± 0.044 | 1.92 ± 0.024
13 | CGUCAU | 1.931 ± 0.0026 | 1.92 ± 0.029
14 | UGUAAU | 1.91 ± 0.055 | 1.816 ± 0.012
15 | UGUAAC | 1.914 ± 0.013 | 1.81 ± 0.024
16 | UGUAAA | 1.9212 ± 0.0013 | 1.802 ± 0.015
17 | UUACCA | 1.95 ± 0.038 | 1.871 ± 0.008
18 | UUACCU | 1.99 ± 0.053 | 1.88 ± 0.029
19 | UUACCC | 1.973 ± 0.0071 | 1.93 ± 0.064
20 | AGUGAG | 1.79 ± 0.029 | 1.28 ± 0.096
21 | AGUGAA | 1.9 ± 0.025 | 1.66 ± 0.059
22 | AGUGAC | 1.912 ± 0.019 | 1.814 ± 0.012
23 | GUAACC | 1.9577 ± 0.00079 | 1.88 ± 0.089

Row | Variant | normalized RNA/DNA level with ligand (log10) (hypoxanthine [1]) | normalized RNA/DNA level without ligand (log10) (hypoxanthine [2])
24 | GUAACU | 1.94 ± 0.03 | 1.878 ± 0.005
25 | GUAACA | 1.89 ± 0.0062 | 1.8412 ± 0.00038
26 | UGUAUC | 1.94 ± 0.052 | 1.92 ± 0.013
27 | UGUAUA | 1.97 ± 0.029 | 1.866 ± 0.0081
28 | UGUAUU | 1.95 ± 0.056 | 1.8992 ± 0.0009
29 | UUACGA | 1.923 ± 0.01 | 1.89 ± 0.022
30 | AGUCGC | 1.945 ± 0.016 | 1.814 ± 0.016
31 | AGUUUU | 1.97 ± 0.077 | 1.947 ± 0.013
32 | AGUUUG | 1.89 ± 0.077 | 1.55 ± 0.035
33 | AGUUUC | 1.92 ± 0.033 | 1.93 ± 0.033
34 | UUAAUU | 1.94 ± 0.041 | 1.84 ± 0.041
35 | UUAAUC | 1.95 ± 0.017 | 1.96 ± 0.058
36 | UUAAUG | 1.886 ± 0.0055 | 1.737 ± 0.0081
37 | AUAAAA | 1.88 ± 0.031 | 1.8 ± 0.04
38 | GUACCC | 1.9 ± 0.045 | 1.8666 ± 0.0018
39 | GUACCU | 1.985 ± 0.016 | 1.9131 ± 0.00047
40 | UUAAGC | 1.94 ± 0.023 | 1.837 ± 0.0055
41 | UUAAGU | 1.936 ± 0.0026 | 1.847 ± 0.0087
42 | UGUCGA | 1.9 ± 0.061 | 1.65 ± 0.049
43 | UGUCGC | 1.9324 ± 0.0018 | 1.89 ± 0.1
44 | AUACGA | 1.868 ± 0.018 | 1.7 ± 0.025
45 | GUAAUA | 1.878 ± 0.0069 | 1.823 ± 0.0023
46 | GGUUCC | 1.99 ± 0.081 | 1.95 ± 0.022

Row | Variant | normalized RNA/DNA level with ligand (log10) (hypoxanthine [1]) | normalized RNA/DNA level without ligand (log10) (hypoxanthine [2])
47 | GGUUCU | 1.977 ± 0.018 | 1.9 ± 0.022
48 | GGUUCA | 1.916 ± 0.0031 | 1.89 ± 0.046
49 | GGUUCG | 1.92 ± 0.063 | 1.69 ± 0.051
50 | UGUACG | 1.929 ± 0.01 | 1.83 ± 0.044
51 | UGUACC | 2 ± 0.033 | 1.92 ± 0.023
52 | AGUUCU | 1.8964 ± 0.00099 | 1.86 ± 0.056
53 | AGUUCG | 1.857 ± 0.017 | 1.43 ± 0.021
54 | AGUUCC | 1.922 ± 0.0092 | 1.886 ± 0.0063
55 | CGUCUA | 1.93 ± 0.025 | 1.87 ± 0.029
56 | CGUCUU | 2.01 ± 0.035 | 1.958 ± 0.018
57 | CGUCUG | 1.95 ± 0.11 | 1.957 ± 0.013
58 | CGUCUC | 2 ± 0.023 | 2.03 ± 0.017
59 | UUAAAC | 1.915 ± 0.008 | 1.791 ± 0.01
60 | CGUAUG | 1.91 ± 0.035 | 1.84 ± 0.0095
61 | CGUAUC | 1.93 ± 0.07 | 1.902 ± 0.018
62 | CGUAUU | 1.96 ± 0.026 | 1.732 ± 0.015
63 | UGUUUU | 1.97 ± 0.069 | 1.888 ± 0.011
64 | UGUUUC | 1.98 ± 0.071 | 2.02 ± 0.047
65 | UGUUUA | 1.942 ± 0.0063 | 1.88 ± 0.035
66 | CUACAC | 1.91 ± 0.026 | 1.77 ± 0.029
67 | CUACAU | 1.95 ± 0.075 | 1.7979 ± 0.00079
68 | CUACAG | 1.91 ± 0.028 | 1.73 ± 0.039
69 | AUACCU | 1.985 ± 0.013 | 1.9 ± 0.039

Row | Variant | normalized RNA/DNA level with ligand (log10) (hypoxanthine [1]) | normalized RNA/DNA level without ligand (log10) (hypoxanthine [2])
70 | AUACCA | 1.91 ± 0.02 | 1.88 ± 0.031
71 | UGUGGU | 1.89 ± 0.037 | 1.68 ± 0.017
72 | UGUGGC | 1.99 ± 0.04 | 1.8784 ± 0.00098
73 | UGUGGG | 1.93 ± 0.014 | 1.64 ± 0.035
74 | GGUGAA | 1.9 ± 0.061 | 1.65 ± 0.024
75 | UUACAA | 1.96 ± 0.022 | 1.796 ± 0.012
76 | UUACAG | 1.92 ± 0.029 | 1.63 ± 0.036
77 | CUAAUA | 1.87 ± 0.029 | 1.79 ± 0.026
78 | CUAAUU | 1.94 ± 0.043 | 1.869 ± 0.006
79 | UGUGUC | 1.98 ± 0.041 | 1.958 ± 0.0027
80 | UGUGUA | 1.92 ± 0.032 | 1.79 ± 0.058
81 | UGUGUU | 1.95 ± 0.071 | 1.887 ± 0.0068
82 | CGUCGA | 1.914 ± 0.011 | 1.85 ± 0.052
83 | CGUCGC | 1.9 ± 0.11 | 1.909 ± 0.01
84 | CGUCGU | 2.05 ± 0.051 | 1.98 ± 0.036
85 | CGUCGG | 1.9 ± 0.026 | 1.57 ± 0.035
86 | GUACGC | 1.95 ± 0.033 | 1.84 ± 0.062
87 | GUACGA | 1.91 ± 0.04 | 1.686 ± 0.0047
88 | AGUGGU | 1.898 ± 0.015 | 1.55 ± 0.056
89 | AGUGGG | 1.89 ± 0.076 | 1.543 ± 0.007
90 | GUAAGU | 1.94 ± 0.039 | 1.79 ± 0.019
91 | CGUGCC | 1.97 ± 0.039 | 1.922 ± 0.0033
92 | CGUGCG | 1.95 ± 0.071 | 1.9 ± 0.027

Row | Variant | normalized RNA/DNA level with ligand (log10) (hypoxanthine [1]) | normalized RNA/DNA level without ligand (log10) (hypoxanthine [2])
93 | AGUAAC | 1.92 ± 0.035 | 1.798 ± 0.0049
94 | AGUAAG | 1.82 ± 0.032 | 1.39 ± 0.024
95 | CGUCCA | 1.957 ± 0.0057 | 1.924 ± 0.0032
96 | CGUCCC | 1.97 ± 0.051 | 1.98 ± 0.064
97 | CGUCCU | 2.02 ± 0.035 | 2.02 ± 0.048
98 | CUAACA | 1.88 ± 0.069 | 1.84 ± 0.031
99 | CUAACG | 1.923 ± 0.017 | 1.88 ± 0.033
100 | CUAACU | 1.92 ± 0.033 | 1.869 ± 0.0023
101 | CUAACC | 1.91 ± 0.051 | 1.83 ± 0.038
102 | UGUUAC | 1.912 ± 0.0067 | 1.836 ± 0.0054
103 | UGUUAG | 1.884 ± 0.0019 | 1.69 ± 0.038
104 | UGUUAA | 1.94 ± 0.029 | 1.841 ± 0.014
105 | AUAAUC | 1.939 ± 0.0048 | 1.884 ± 0.0055
106 | CUACGA | 1.97 ± 0.034 | 1.87 ± 0.034
107 | CUACGC | 1.961 ± 0.011 | 1.913 ± 0.007
108 | CGUUAU | 1.916 ± 0.006 | 1.753 ± 0.011
109 | CGUUAG | 1.944 ± 0.01 | 1.77 ± 0.17
110 | CGUUAC | 1.91 ± 0.082 | 1.717 ± 0.0087
111 | AGUCUC | 1.94 ± 0.037 | 1.89 ± 0.026
112 | AGUCUA | 1.924 ± 0.0097 | 1.836 ± 0.0084
113 | AGUCUU | 1.96 ± 0.04 | 1.89 ± 0.036
114 | AGUGCU | 1.998 ± 0.013 | 1.85 ± 0.023
115 | AGUGCG | 1.84 ± 0.02 | 1.365 ± 0.0051
